In publication PMC5715787, “Structural basis for antibody recognition of the NANP repeats in Plasmodium falciparum circumsporozoite protein” (Proceedings of the National Academy of Sciences of the …, 2017):

Target: T1, Ac-…-NH2 peptide (P. falciparum)
T1 sequence (peptide, N-terminal acetyl group; C-terminal NH2 group (amide)): NPNVDPNANPNV
Test: ITC; MicroCal Auto-iTC200; triplicate (or duplicate) experiments; details in SI

B1: Fab317 (Fab, V domains shown)
VH: QMQLVESGGGVVQPGRSLRLSCTASGFTFSTYAMHWVRQSPGQGLQWVAVISYHSTNKYYEDSVRGRFTISRDNSKNTLYLQMNSLRAEDTAVYYCARDGYSSSFFDFWGQGTLVTVSS
VL: DIQMTQSPSTLSASVGDRVAITCRASQSISRWLAWYQQQPGKAPKLLMSGASVLESGVPSRFSGSGSGTEFTLTISSLQPDDFATYYCQHYNSYFVTFGQGTKVEIK
B1 showed a Kd of 12.1 µM, a dH of -9.66 kcal/mol and a stoichiometry N of 1.72.
